Experimental findings from article PMC4100735 are described below.

For this experiment, the target named is TNF receptor-associated factor 2 (TRAF2) (human (endogenous in HEK-293T)) (UniProt Q12933). In words: co-IP; lysates of HEK-293T cells transfected with Tyr52 or Cys52 FBXO7-EGFP and treated with MG-132 (5 uM, 24 h); 100 ug protein immunoprecipitated with mouse anti-TRAF2 antibody on protein G beads in IP lysis buffer (25 mM Tris-HCl pH 7.4, 150 mM NaCl, 1% NP-40, 1 mM EDTA, 5% glycerol); blot with anti-EGFP; normal IgG as negative control.
Chain of UniProt Q12933 (Q12933 whole entry): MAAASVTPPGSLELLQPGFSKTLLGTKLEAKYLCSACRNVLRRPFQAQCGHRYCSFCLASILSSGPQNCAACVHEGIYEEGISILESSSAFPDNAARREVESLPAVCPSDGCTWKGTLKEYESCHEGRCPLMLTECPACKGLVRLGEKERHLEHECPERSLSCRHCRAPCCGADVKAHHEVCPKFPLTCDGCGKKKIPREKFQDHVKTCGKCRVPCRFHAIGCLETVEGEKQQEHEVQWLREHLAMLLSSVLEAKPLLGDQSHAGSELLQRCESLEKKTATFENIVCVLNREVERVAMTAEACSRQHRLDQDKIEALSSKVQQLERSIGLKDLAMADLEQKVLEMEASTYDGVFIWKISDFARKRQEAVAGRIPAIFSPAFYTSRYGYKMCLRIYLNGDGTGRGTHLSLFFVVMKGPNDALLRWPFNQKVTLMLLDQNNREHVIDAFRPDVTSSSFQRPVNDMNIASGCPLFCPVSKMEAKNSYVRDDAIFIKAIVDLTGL

For the substance “Cys52 FBXO7-EGFP (F-box only protein 7 Y52C variant, isoform 1, EGFP-tagged) (from UniProt Q9Y3I1-1 1-522) (natural protein)”, the FBXO7-TRAF2 interaction in co-IP, percent of Tyr52 FBXO7-EGFP was determined as 367%.
